Measurements: patent US20180356429A1

Key:
[1] = biological target: Recombinant human IL-13 (R&D Systems, MN, catalog no. 213-ILB/CF) (human) (UniProt P35225); experiment: sandwich pair screen, 100 pg/mL recombinant IL-13, binder is detection Ab; capture Ab MILR1444A
[2] = biological target: Recombinant human IL-13 (R&D Systems, MN, catalog no. 213-ILB/CF) (human) (UniProt P35225); experiment: sandwich pair screen, 100 pg/mL recombinant IL-13, binder is detection Ab; capture Ab 14C9
[3] = biological target: Recombinant human IL-13 (R&D Systems, MN, catalog no. 213-ILB/CF) (human) (UniProt P35225); experiment: sandwich pair screen, 100 pg/mL recombinant IL-13, binder is detection Ab; capture Ab 4D7
[4] = biological target: Recombinant human IL-13 (R&D Systems, MN, catalog no. 213-ILB/CF) (human) (UniProt P35225); experiment: sandwich pair screen, negative (blank) signal, binder is detection Ab; capture Ab 4D7
[5] = biological target: Recombinant human IL-13 (R&D Systems, MN, catalog no. 213-ILB/CF) (human) (UniProt P35225); experiment: sandwich pair screen, 100 pg/mL recombinant IL-13, binder is detection Ab; capture Ab 32116
[6] = biological target: Recombinant human IL-13 (R&D Systems, MN, catalog no. 213-ILB/CF) (human) (UniProt P35225); experiment: sandwich pair screen, negative (blank) signal, binder is detection Ab; capture Ab 8C11
[7] = biological target: Recombinant human IL-13 (R&D Systems, MN, catalog no. 213-ILB/CF) (human) (UniProt P35225); experiment: sandwich pair screen, 100 pg/mL recombinant IL-13, binder is detection Ab; capture Ab 8C11
[8] = biological target: Recombinant human IL-13 (R&D Systems, MN, catalog no. 213-ILB/CF) (human) (UniProt P35225); experiment: sandwich pair screen, negative (blank) signal, binder is detection Ab; capture Ab 14C9
[9] = biological target: Recombinant human IL-13 (R&D Systems, MN, catalog no. 213-ILB/CF) (human) (UniProt P35225); experiment: sandwich pair screen, 100 pg/mL recombinant IL-13, binder is detection Ab; capture Ab 11H4
[10] = biological target: Recombinant human IL-13 (R&D Systems, MN, catalog no. 213-ILB/CF) (human) (UniProt P35225); experiment: sandwich pair screen, negative (blank) signal, binder is detection Ab; capture Ab 228B/C
[11] = biological target: Recombinant human IL-13 (R&D Systems, MN, catalog no. 213-ILB/CF) (human) (UniProt P35225); experiment: sandwich pair screen, 100 pg/mL recombinant IL-13, binder is detection Ab; capture Ab 228B/C
[12] = biological target: Recombinant human IL-13 (R&D Systems, MN, catalog no. 213-ILB/CF) (human) (UniProt P35225); experiment: sandwich pair screen, negative (blank) signal, binder is detection Ab; capture Ab 11H4
[13] = biological target: Recombinant human IL-13 (R&D Systems, MN, catalog no. 213-ILB/CF) (human) (UniProt P35225); experiment: sandwich pair screen, negative (blank) signal, binder is detection Ab; capture Ab MILR1444A
[14] = biological target: Recombinant human IL-13 (R&D Systems, MN, catalog no. 213-ILB/CF) (human) (UniProt P35225); experiment: sandwich pair screen, negative (blank) signal, binder is detection Ab; capture Ab 32116

Sequence of Recombinant human IL-13 (R&D Systems, MN, catalog no. 213-ILB/CF) (human) (P35225 other isoform, or with tags, fused parts or gaps): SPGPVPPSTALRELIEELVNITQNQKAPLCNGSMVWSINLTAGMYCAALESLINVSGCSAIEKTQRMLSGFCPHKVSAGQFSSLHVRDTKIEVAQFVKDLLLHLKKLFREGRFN

Assay Signal Pos [1]: 6
Assay Signal Pos [2]: 70.3
Assay Signal Pos [3]: 29.9
Assay Signal Neg (blank) [4]: 24.7
Assay Signal Pos [5]: 126
Assay Signal Neg (blank) [6]: 3.9
Assay Signal Pos [7]: 25.4
Assay Signal Neg (blank) [8]: 29
Assay Signal Pos [9]: 9540
Assay Signal Neg (blank) [10]: 26.6
Assay Signal Pos [11]: 27.7
Assay Signal Neg (blank) [12]: 22.4
Assay Signal Neg (blank) [13]: 5.4
Assay Signal Neg (blank) [14]: 15.2
B1: 228B/C (antibody, from a related filing, V domains shown)
VH: QVQLQESGPGLVAPSQSLSITCTVSGFSLNAYSVNWVRQPPGKGLEWLGMIWGDGKIVYNSALKSRLNISKDSSKSQVFLKMSSLQSDDTARYYCAGDGYYPYAMDNWGHGTSVTVSS
VL: NIVLTQSPASLAVSLGQRATISCRASKSVDSYGNSFMHWYQQKPGQPPKLLIYLASNLESGVPARFSGSGSRTDFTLTIDPVEADDAASYYCQQNNEDPRTFGGGTKLEIK
